Laboratory results taken from publication PMC5552909, “The first description of a hormone‐sensitive lipase from a basidiomycete: Structural insights and biochemical characterization revealed Bjerkandera adusta BaEstB as a novel esterase” (MicrobiologyOpen, 2017).
Values belong to the molecule of their own block, whether it stands above or below them.

How the values were obtained:
[1] = target: Bjerkandera adusta BaEstB, Hormone-Sensitive Lipase (HSL) family esterase (Bjerkandera adusta); test: dynamic light scattering (DLS); purified BaEstB in presence of the substrate 2-naphthyl acetate; same conditions, considering its optimum pH and temperature; 12 scans of 10 s
[2] = target: Bjerkandera adusta BaEstB, Hormone-Sensitive Lipase (HSL) family esterase (Bjerkandera adusta); test: dynamic light scattering (DLS); purified BaEstB without substrate; 30°C; Malvern Zetasizer Nano ZSP; 12 scans of 10 s; hydrodynamic radius from the Stokes-Einstein equation assuming spherical geometry
[3] = substrate: CC(=O)Oc1ccc2ccccc2c1; test: isothermal titration calorimetry, single injection, Michaelis-Menten fit; assay type: biochemical, Bjerkandera adusta; settings: 30°C in methods, results state optimum pH and temperature (pH 7.0; 45°C)

stoichiometry N [1]: 2 | stoichiometry N [2]: 2
Molecule: Bjerkandera adusta BaEstB, Hormone-Sensitive Lipase (HSL) family esterase (enzyme)

B1: BaEstB (Bjerkandera adusta) (protein)
chain: MESIRLSNAAGTISNDILAQVTFANEAIYPLLEKRRAEIENVTRKTFRYGALPGSEMDVYYPSSTPSGKAPVLAFVHGGAYVHGSKTHPPPGDLIYKNVGAFYASQGFVTVIPDYRKLPGMKWPDAPSDIASALTFLVAHSSDVNASAPTAADVQNIFLVGHSAGGAIASDVLLAPGLLPANVRRSVRGLIVFGGMMHYRGLEYPIPPFVLPGYYGTDEDVRAHEPLGLLESASDEIVRGLPDVLMVLSEHDVAAMRAAVTDFRSALAERTGKDVPLLVAQGHNHISPHYALSSGEGEEWGHDVIRWMRAKLASGNGVPATE
notes: full-length ORF (969 nt, M1-E322) in pPICZalphaA with myc and poly-His tags; secreted from Pichia pastoris X-33; dimer by DLS; catalytic triad S163, D252, H285
Km [3]: 7.68 ± 0.62 µM | kcat [3]: 5.31 × 10^3 ± 20 s^−1
